B1: mRNA-splicing (parent)
chain: AGUUGCUGCUGGGAGCUCCAGCACAGUGAAAUGGACAGAAGGGCAGAGCAA

Variants of: B1
Assay: exon inclusion enrichment index; higher = more inclusion; WT1 exon 5 minigene, HEK293

Variant | exon inclusion enrichment index
G5C C6G U7C U10C G42U G43U | 4.33
G5A C6U U7A G8U C9A A14C G15A | 0.00652
G5C C6G U7C U10C G15U C16U | 3.3
G5C C6U G8C C9U U10C C36U A37U | 1.12
G5C C6U G8C C9U U10C G38C A39G | 1.77
G5A U7C G8A U10C G34U A35U | 0.441
G5C C6U G8C C9U U10C G34A A35G | 0.76
G5C C6U G8C C9U U10C G33C | 2.15
G5C C6G U7C U10C U27G G28U | 0.0303
G5C C6A U7C G8A U10A C19G A20U | 0.0711
G5A U7C G8A U10C G26A | 3.08
G5A C6G U7G C9A G38C | 0.000603
G5A U7C G8A U10C G12U G13C | 0.477
G5A C6G U7G C9A A25G | 0.0133
G5C C6G U7C U10C A35C | 1.69
G5A C6U U7A G8U C9A G42A G43C | 1.53
G5A C6U U7A G8U C9A G42A G43U | 1.03
G5C C6G U7C U10C A30G A31C | 0.674
G5C C6U U7G C9U U10C | 0.743
G5C C6A U7C G8A U10A A45C G46C | 0.0869
C6A U7C G8A C9A U10A | 0.265
G5U G8U C9U G46C A47G | 0.306
G5C C6G U7C U10C A31C U32C | 3.85
G5A U7C G8A U10C G15U | 2.27

Variant | exon inclusion enrichment index
G5C C6G U7C U10C A23C C24A | 3.49
G5A U7C G8A U10C G46A A47C | 3.08
G5A U7C G8A U10C C22A A23U | 2.17
G5A C6G U7G C9A A14U G15C | 0.00121
G5A U7C G8A U10C G33A G34U | 0.361
G5U G8U C9U G34C A35U | 0.00745
G5C C6A U7C G8A U10A A37C | 0.426
U4C G5U C6A U7C G8A U10A | 0.501
G5C C6G U7C U10C G13U A14C | 1.67
G5A U7C G8A U10C G38U A39U | 0.126
G5C C6G U7C U10C A31G U32G | 2.67
G5C C6A U7C G8A U10A G43U C44G | 0.112
G5A C6U U7A G8U C9A G38C A39C | 0.105
G5C C6U G8C C9U U10C A30G A31G | 0.469
G5C C6U G8C C9U U10C G28A A29C | 1.12
G5A C6U U7A G8U C9A G28U A29G | 0.0696
G5A C6U U7A G8U C9A G28U A29C | 0.0467
G42U G43A | 0.492
G5A C6G U7G C9A G28C A29G | 0.0115
G5A C6G U7G C9A A47C G48A | 0.011
C6A U7C C9A U10C A40G G41A | 1.83
G5C C6A U7C G8A U10A G33A | 0.00667
G5C C6A U7C G8A U10A G12C G13U | 0.0133
G5C C6G U7C U10C C36U A37C | 2.78

Variant | exon inclusion enrichment index
G5A C6G U7G C9A G15C C16A | 0.00139
G5U G8U C9U G21U | 0.078
G5A U7C G8A U10C A47C G48C | 2.06
G5U G8U C9U C22U A23C | 0.0522
G5U C6A U7A C9A U10A | 0.0813
G5A C6G U7G C9A G38A A39G | 0.000899
G5A C6G U7G C9A A39U A40U | 0.00155
G5A C6G U7G C9A A29G | 0.00111
G5A U7C G8A U10C A29U A30C | 1.98
G5A C6G G8A C9A | 0.00571
C6A U7C C9A U10C C36A A37C | 3.18
C6A U7A C9A U10A A47G G48U | 0.0862
G5A C6G U7G C9A A45G | 0.00308
U4A G5A C6G U7C U10C | 1.18
U3C C6A U7A C9A U10A | 1.1
G5U G8U C9U C19A A20C | 0.0372
G5A C6U U7A G8U C9A U17G | 0.0456
C6A U7C C9A U10C G28C A29G | 3.91
G5A U7C G8A U10C C22G A23G | 1.4
C6A U7A C9A U10A G46C A47G | 1.23
G5C C6A U7C G8A U10A G41C | 0.467
G5C C6A U7C G8A U10A G41U | 0.102
G5C C6G U7C U10C G28U A29G | 3.24
G5A C6G U7G G8C C9U | 0.00108

Variant | exon inclusion enrichment index
G5C C6A U7C G8A U10A G42A G43A | 1.43
G5C C6A U7C G8A U10A A20G G21U | 0.177
C6A U7C C9A U10C C36G A37G | 1.36
G5C C6U G8C C9U U10C A30C A31G | 3.01
G5A C6G U7G C9A C22A A23C | 0.0031
G5A C6G U7G C9A G11A G12U | 0.000779
G5C C6A U7A G8U U10A | 0.0878
G5A C6G U7G C9A G34C | 0.000973
G5U G8U C9U A31G U32C | 0.678
U27G G28U | 0.00139
G5U G8U C9U G42A G43U | 1.46
G5A U7C G8A U10C C44G | 3.26
G5C C6A U7C G8A U10A A31C | 0.155
G5C C6G U7C U10C C22G A23C | 2.56
C6A U7A C9A U10A G26A U27G | 1.32
G5C C6A U7C G8A U10A A35G C36G | 0.00494
G5C C6U G8C C9U U10C A45G | 3.56
G5A C6G U7G C9A A23C C24U | 0.00192
G5C C6U U7G U10C | 0.82
G5A C6G U7G C9A A40G G41A | 0.0007
C6A U7A G8U C9G U10A | 0.135
G5A C6U U7A G8U C9A A25C G26C | 0.0828
G5C C6U U7G G8A U10A | 0.0911
G5U G8U C9U A30U A31G | 0.15

Variant | exon inclusion enrichment index
G5C C6U G8C C9U U10C A31G U32G | 1.04
C6A U7C C9A U10C C18U C19U | 0.145
G5A U7C G8A C9G | 0.872
G5C C6U G8C C9U U10C C44G A45G | 0.398
C6A U7G | 0.00565
G5U G8U C9U G48A | 0.314
C6A U7C C9A U10C C24G A25G | 2.34
G5A C6U U7A G8U C9A A45G G46U | 0.0592
G5C C6U U7G G8A C9U U10C | 1.49
C6A U7C C9A U10C A40G | 3.27
G5C C6G U7C G8A U10C | 3.31
G5C C6U G8C C9U U10C A23G C24U | 0.696
G46A A47G | 0.0433
C6U U7C G8A U10C | 2.38
G5C C6U G8C C9U U10C A25G G26A | 4.14
G5A C6U U7A G8U C9A G48U | 0.114
C44A | 0.507
G5A C6U U7A G8U C9A G28C A29G | 0.178
G5A C6G U7G C9A G13A A14G | 0.00529
G5C C6A U7C G8A U10A G15A C16U | 0.0227
G5A G8U C9U | 0.166
G5C C6G U7C U10C C19U A20G | 1.14
C18G C19A | 2.92
C6A U7A C9A U10A U17G | 0.51

Variant | exon inclusion enrichment index
G5U G8U C9G U10G | 0.108
G13C A14C | 0.19
G5C C6G U7C U10C G46C A47U | 2.37
G5A U7C G8A U10C C18U C19U | 0.0421
G5A C6U U7A G8U C9A G21U C22U | 0.00572
G5A C6U U7A G8U C9A G21U C22G | 0.0561
C6A U7C C9A U10C A30C A31C | 4.36
G5C C6A U7C G8A U10A U17A | 0.106
U4C G5U G8U C9U | 0.371
G5C C6G U7C U10C G38A | 2.05
C6A U7A C9A U10A G21A C22U | 0.235
C6A U7A C9A U10A G11U G12C | 2.55
G5A C6U U7A G8U C9A C19A | 0.0415
G5C C6G U7C U10C G28A A29U | 1.28
G5C C6G U7C U10C G28A A29C | 2.29
G5A C6G U7G C9A G21C C22G | 0.00387
G5U G8U C9U A47U | 0.115
C6A U7C C9A U10C G21U C22U | 1.78
G5C C6U G8C C9U U10C G28U A29U | 0.419
U3C U4C C6A U7C C9A U10C | 4.17
C6A U7C C9A U10G | 0.756
G5A C6G U7G C9A G15U C16U | 0.000743
G5A C6G U7G C9A G15U C16A | 0.00611
G5A C6G U7G C9A A23U C24A | 0.000776

Variant | exon inclusion enrichment index
G5A C6U U7A G8U C9A G26C U27A | 0.0751
G5A C6U U7A G8U C9A G34U | 0.00388
G5A C6G U7G C9A G28C | 0.00255
G5C C6A U7C G8A U10A U27G | 0.0422
C6A U7C C9A U10C G11A G12C | 2.2
C6A U7C C9A U10C G11A G12U | 1.87
G5U G8U C9U C36U A37C | 0.0658
G5A C6G U7G C9A U32G | 0.00176
G5A U7C G8A U10C G11C G12U | 0.353
G5C C6G U7C U10C A25G G26C | 4.8
C6A U7C C9A U10C C44A A45C | 4.04
G5C C6G U7C U10C U32G | 0.601
G5U G8U C9U G33A G34C | 0.0112
U3A U4A G5C C6U G8C C9U U10C | 1.8
G5A U7C G8A U10C G12A G13A | 0.689
G5A U7C G8A U10C A40C G41C | 3.47
G5A C6U U7A G8U C9A G34C A35C | 0.00243
G5A C6U U7A G8U C9A G34C A35G | 0.0452
G5C C6A U7C G8A U10A A39G A40C | 0.119
G5A C6U U7C G8A U10C | 2.02
G5A C6G U7A G8A U10C | 0.237
C6A U7A C9A U10A A45U G46C | 0.614
G5A C6U U7A G8U C9A C44U A45C | 0.1
